The values below come from patent publication US7674604.

The target of assay [1] is LFA-1 mutant K287C/K294C (αL K287C/K294C with β2) on 293T or K562 transfectants (human) (UniProt P05107). Put plainly: flow cytometry, K562, normalized to TS2/4.
Assay [2] concerns the target LFA-1 mutant L289C/K294C (αL L289C/K294C with β2) on 293T or K562 transfectants (human) (UniProt P05107). Description: flow cytometry, K562, normalized to TS2/4. For orientation: A flow cytometer gives signals particle by particle.
Assay [3] concerns the target LFA-1 mutant K287C/K294C (αL K287C/K294C with β2) on 293T or K562 transfectants (human) (UniProt P05107). Description: flow cytometry, 293T, normalized to TS2/4.
Assay [4] deals with LFA-1 mutant L289C/K294C (αL L289C/K294C with β2) on 293T or K562 transfectants (human) (UniProt P05107). Put plainly: flow cytometry, 293T, normalized to TS2/4.
Assay [5] concerns the target LFA-1 single cysteine substitution mutant K294C on 293T transfectants (human) (UniProt P05107). Description: flow cytometry, 293T, normalized to TS2/4.
Assay [6] has as its target LFA-1 single cysteine substitution mutant L289C on 293T transfectants (human) (UniProt P05107). Description: flow cytometry, 293T, normalized to TS2/4.
The target of assay [7] is LFA-1 single cysteine substitution mutant K287C on 293T transfectants (human) (UniProt P05107). Put plainly: flow cytometry, 293T, normalized to TS2/4.
Assay [8] addresses wild-type Mac-1 (αMβ2) on 293T or K562 transfectants (human) (UniProt P05107). Put plainly: flow cytometry on K562 stable transfectants with intact Mac-1, row 'Wild-type'.
For assay [9], the target named is Mac-1 mutant Q163C/Q309C (αM Q163C/Q309C with β2) on 293T or K562 transfectants (human) (UniProt P05107). Description: flow cytometry on K562 stable transfectants with intact Mac-1, row printed 'Q163/Q309C'.
Assay [10] deals with Mac-1 mutant D294C/Q311C (with β2) on K562 transfectants (human) (UniProt P05107). Put plainly: flow cytometry on K562 stable transfectants with intact Mac-1, row 'D294C/Q311C'.
For assay [11], the target named is wild-type LFA-1 (αL/β2 complex) expressed on 293T or K562 transfectants (human) (UniProt P05107). Description: flow cytometry, K562 WT (#22), ICAM-1-IgA 100 µg/ml, FITC anti-human IgA, taken after paragraph 201 as ICAM-1-IgA with CBRLFA-1/2 10 µg/ml; left column of this row, taken as no ICAM-1-IgA: 3.58.
Assay [12] concerns the target LFA-1 mutant K287C/K294C (αL K287C/K294C with β2) on 293T or K562 transfectants (human) (UniProt P05107). Description: flow cytometry, K562 K287C K294C (#7), ICAM-1-IgA 100 µg/ml, FITC anti-human IgA, taken after paragraph 201 as ICAM-1-IgA with CBRLFA-1/2 10 µg/ml; left column of this row, taken as no ICAM-1-IgA: 3.59.
The target is the same in assay [13]. Put plainly: flow cytometry, K562 K287C K294C (#7), ICAM-1-IgA 100 µg/ml, FITC anti-human IgA, taken after paragraph 201 as ICAM-1-IgA without CBRLFA-1/2; left column of this row, taken as no ICAM-1-IgA: 3.59.
The target in assay [14] is wild-type LFA-1 (αL/β2 complex) expressed on 293T or K562 transfectants (human) (UniProt P05107). Description: flow cytometry, K562 WT (#22), ICAM-1-IgA 100 µg/ml, FITC anti-human IgA, taken after paragraph 201 as ICAM-1-IgA without CBRLFA-1/2; left column of this row, taken as no ICAM-1-IgA: 3.58.
Assay [15] concerns the target LFA-1 mutant L289C/K294C (αL L289C/K294C with β2) on 293T or K562 transfectants (human) (UniProt P05107). Description: flow cytometry, K562 L289C K294C (#6), ICAM-1-IgA 100 µg/ml, FITC anti-human IgA, taken after paragraph 201 as ICAM-1-IgA with CBRLFA-1/2 10 µg/ml; left column of this row, taken as no ICAM-1-IgA: 4.68.
The target is the same in assay [16]. Description: flow cytometry, K562 L289C K294C (#6), ICAM-1-IgA 100 µg/ml, FITC anti-human IgA, taken after paragraph 201 as ICAM-1-IgA without CBRLFA-1/2; left column of this row, taken as no ICAM-1-IgA: 4.68.

soluble ICAM-1-IgA chimera containing the 5 Ig domains of human ICAM-1, sequence (P05362 28-480, stated change not applied): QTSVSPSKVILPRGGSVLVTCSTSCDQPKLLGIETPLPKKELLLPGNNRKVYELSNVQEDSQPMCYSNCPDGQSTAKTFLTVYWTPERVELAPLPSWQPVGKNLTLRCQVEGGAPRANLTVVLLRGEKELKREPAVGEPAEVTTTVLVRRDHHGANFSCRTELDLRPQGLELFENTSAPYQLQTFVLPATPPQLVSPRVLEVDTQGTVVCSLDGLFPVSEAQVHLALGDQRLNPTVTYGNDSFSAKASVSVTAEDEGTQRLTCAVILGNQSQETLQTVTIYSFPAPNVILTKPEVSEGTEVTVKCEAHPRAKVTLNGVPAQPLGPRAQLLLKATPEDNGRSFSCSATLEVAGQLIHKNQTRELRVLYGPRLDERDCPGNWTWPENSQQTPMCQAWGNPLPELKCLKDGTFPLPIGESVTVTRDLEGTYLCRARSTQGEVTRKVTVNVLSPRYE

For “anti-β2 (CD18) monoclonal antibody CBRLFA-1/7”, the % wild-type binding (% of wild-type) in assay [1] is 95.2; in assay [2] it was 97.2; in [3], 95.3; in assay [4], 91.7.

Consider monoclonal antibody S6F1, for which the % wild-type binding (% of wild-type) in assay [1] was found to be 97.4; in assay [2] it was 85.7; in assay [3] it was 89.4; in assay [5], 92.3; in [4] it was 95.3; in assay [6] it was 86.4. In [7], this substance showed a % wild-type binding (% of wild-type) of 98.3.

Consider “mouse anti-human αL (CD11a) monoclonal antibody TS2/6”, for which the % wild-type binding (% of wild-type) in assay [1] was 89.2; in [2], 95.9; in [3] it was 84.9; in assay [5] it was 91.7; in assay [4], 78.6; in assay [6], 88.2. Besides, the % wild-type binding (% of wild-type) in assay [7] worked out at 91.4.

With “mouse anti-human αL (CD11a) monoclonal antibody TS2/14”, the % wild-type binding (% of wild-type) in assay [1] is 95.4; in [2] it was 103; in assay [3], 85.5; in assay [5], 103; in assay [4], 83.3; in [6] it was 100. This substance also registered a % wild-type binding (% of wild-type) in assay [7] of 103.

Regarding “anti-β2 (CD18) monoclonal antibody TS1/18”, the % wild-type binding (% of wild-type) in assay [1] stood at 97.4; in [2], 106; in [3], 99.8; in assay [5] it was 108; in assay [4], 95.7; in assay [6], 87.3. For the same substance, the % wild-type binding (% of wild-type) in assay [7] was found to be 87.9.

Take monoclonal antibody F8.8: the % wild-type binding (% of wild-type) stood at 102 in [1]; 93.9 in [2]; 93.7 in [3]; 95.5 in [5]; 83.6 in assay [4]; 99.6 in assay [6]. This substance gave a % wild-type binding (% of wild-type) in assay [7] of 95.9.

“mouse anti-human αL (CD11a) monoclonal antibody TS1/11”: the % wild-type binding (% of wild-type) is 96 in [1], 105 in [2], 94.4 in assay [3] and 93.7 in assay [4].

As for monoclonal antibody 25-3-1, the % wild-type binding (% of wild-type) in [1] was 88.5; in assay [2], 85.7; in assay [3], 93.1; in assay [4], 90.9.

Take monoclonal antibody BL5: the % wild-type binding (% of wild-type) in assay [1] came out at 92.4; in assay [2], 97.6; in assay [3], 92.4; in [5], 88.3; in assay [4], 85.8; in [6], 92.4. This substance also registered a % wild-type binding (% of wild-type) in assay [7] of 93.3.

monoclonal antibody CBRM1/5: the mean fluorescent intensity in assay [8] is 25; in [9] it was 208; in assay [10], 262.

On to monoclonal antibody May.035, for which the % wild-type binding (% of wild-type) in assay [1] worked out at 92.6; in [2], 101; in [3], 92.6; in assay [5] it was 106; in assay [4], 82.1; in assay [6] it was 95.4. Also, the % wild-type binding (% of wild-type) in assay [7] was 95.8.

In the case of “mouse anti-human αL (CD11a) monoclonal antibody TS1/12”, the % wild-type binding (% of wild-type) in [1] was 87.3; in [2], 106; in assay [3], 88.7; in [5], 93.7; in assay [4], 102; in assay [6] it was 104. Further, the % wild-type binding (% of wild-type) in assay [7] is 99.3.

On to “soluble ICAM-1-IgA chimera containing the 5 Ig domains of human ICAM-1 (from UniProt P05362 28-480) (Fc fusion)”, for which the mean fluorescent intensity came to 4.89 in assay [11]; 41.3 in [12]; 24.8 in assay [13]; 5.26 in assay [14]; 4.32 in assay [15]; 5.36 in assay [16].

Regarding monoclonal antibody CLBLFA-1/1, the % wild-type binding (% of wild-type) in [1] worked out at 96.5; in [2], 100.

For monoclonal antibody CBRM1/32, the mean fluorescent intensity in assay [8] is 120; in assay [9], 115; in assay [10] it was 81.
